Results as given in patent publication EP4772536A1 (Teijin Pharma Limited, dated 2026).

T1: recombinant mouse soluble gpNMB (mouse gpNMB-FLAG-His) (mouse, UniProt Q99P91 23-502)
T1 construct: FLAG and His tags; also called recombinant mouse gpNMB-FLAG-His
T1 sequence: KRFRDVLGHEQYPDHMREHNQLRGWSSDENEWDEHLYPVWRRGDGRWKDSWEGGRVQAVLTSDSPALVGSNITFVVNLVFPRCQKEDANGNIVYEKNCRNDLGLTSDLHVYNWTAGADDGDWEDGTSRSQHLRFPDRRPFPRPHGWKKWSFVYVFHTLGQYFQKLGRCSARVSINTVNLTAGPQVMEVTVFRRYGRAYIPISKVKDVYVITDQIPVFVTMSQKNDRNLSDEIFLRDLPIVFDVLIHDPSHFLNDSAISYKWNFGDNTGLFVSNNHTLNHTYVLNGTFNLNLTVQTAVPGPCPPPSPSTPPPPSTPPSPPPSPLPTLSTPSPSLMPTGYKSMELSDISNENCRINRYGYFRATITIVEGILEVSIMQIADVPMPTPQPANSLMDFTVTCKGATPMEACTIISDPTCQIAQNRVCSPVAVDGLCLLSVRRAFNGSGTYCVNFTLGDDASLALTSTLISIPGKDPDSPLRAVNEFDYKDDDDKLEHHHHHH

T2: recombinant human soluble gpNMB (human gpNMB-FLAG-His) (human, UniProt Q14956 23-498)
T2 construct: FLAG and His tags; also called recombinant human gpNMB-FLAG-His
T2 sequence: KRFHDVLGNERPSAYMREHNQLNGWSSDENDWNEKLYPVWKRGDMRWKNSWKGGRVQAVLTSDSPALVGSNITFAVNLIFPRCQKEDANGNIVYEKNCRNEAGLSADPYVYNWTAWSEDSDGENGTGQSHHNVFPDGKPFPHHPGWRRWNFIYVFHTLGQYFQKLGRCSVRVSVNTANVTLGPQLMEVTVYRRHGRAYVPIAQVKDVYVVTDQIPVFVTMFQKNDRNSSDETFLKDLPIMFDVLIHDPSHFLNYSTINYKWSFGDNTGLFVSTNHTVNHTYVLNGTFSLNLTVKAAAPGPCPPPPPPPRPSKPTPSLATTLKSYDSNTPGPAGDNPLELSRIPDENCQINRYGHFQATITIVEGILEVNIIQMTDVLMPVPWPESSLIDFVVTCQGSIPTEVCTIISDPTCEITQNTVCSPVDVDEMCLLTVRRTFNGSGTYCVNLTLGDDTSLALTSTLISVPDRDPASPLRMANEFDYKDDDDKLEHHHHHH

B1: GPN06-1 (antibody, V domains shown)
VH: QVQLQQPGAEIVRPGASVKLSCKASGYTFTDNWMGWVKQRPGQGLEWIGAIDPSDSFTNYNQNFKGKATLTVDTSSSTAYMQLSSLTSEDSAVYFCTRSGYYGSPKLGGDYWGQGTTLTVSS
VL: QIVLTQSPAIMSASLGEEITLTCSASSSISYMHWYQQKSGTSPKLLIYSTSNLASGVPSRFSGSGSGTFYSLTISSVEAEDAADYYCHQWNSYPCTFGGGTKLEIK
notes: anti-gpNMB monoclonal antibody
B2: GPN05-1 (antibody, V domains shown)
VH: QVQLQQSGAELVRPGTSVKVSCKASGYAFSNHLIEWVKQRPGQGLEWIGVINPGSGGTNYIEKFKGKATLTADKSSSTAYMQLSSLTSDDSAVYFCARGANWDVGFAYWGQGTLVTVSA
VL: EIQMTQSPSSMSASLGDRITITCQATQDIVKNLNWYQQKPGKPPSFLIYYATELAEGVPSRFSGSGSGSDFSLTISNLESEDFADYYCLQFHEFPRTFGGGTKLEIK
notes: as for B1

Key:
[1] = biological target: T1, recombinant mouse soluble gpNMB (mouse …); test: SPR single-cycle kinetics, gpNMB-FLAG-His captured, 1:1 model
[2] = biological target: T2, recombinant human soluble gpNMB (human …); test: as above

Binder | Kd [1] [nM] | koff [1] [s⁻¹] | kon [1] [M⁻¹ s⁻¹] | Kd [2] [nM] | koff [2] [s⁻¹] | kon [2] [M⁻¹ s⁻¹]
B1 | 5.05 | 0.000879 | 174000 | 0.488 | 0.000253 | 519000
B2 | 8.5 | 0.000307 | 36100 | 0.366 | 3.55e-05 | 96900
